Experimental data from US20210079037A1, “LIGHT-SWITCHABLE POLYPEPTIDE AND USES THEREOF” (TECHNISCHE UNIVERSITÄT MÜNCHEN, priority 2017, published 2021).
Numbered stars: 1 amine (or outer) side, 2 acyl side, 3 side chain; on linkers, the order of the positions; unused ones are H or OH. Square brackets hold non-standard residues; d marks the D form. Caf = 4′-carboxyphenylazophenylalanine, O=C([C@H](Cc1ccc(/N=N/c2ccc(C(=O)[*:3])cc2)cc1)N[*:1])[*:2]

B1: ProtL^Caf364: ProtL-ABD fusion protein modified with Caf at position 364 (protein)
chain: MKEEVTIKVNLIFADGKTQTAEFKGTFEEATAKAYAYAD[Caf]LAKENGEYTADLEDGGNTINIKFAGGAVDANSLAEAKVLANRELDKYGVSDYYKNLINNAKTVEGVKALIDEILAALP
B2: ProtL^Caf347: ProtL-ABD fusion protein with Caf at position 347 and mutation Tyr361Ala (protein)
chain: MKEEVTIKVNLIFADGKTQTAE[Caf]KGTFEEATAKAYAAADLLAKENGEYTADLEDGGNTINIKFAGGAVDANSLAEAKVLANRELDKYGVSDYYKNLINNAKTVEGVKALIDEILAALP
B3: ProtL^Caf337: ProtL-ABD fusion protein with Caf at position 337 and mutations Tyr361Asn and Leu365Ser (SEQ ID NO: 86) (protein)
chain: MKEEVTIKVNLI[Caf]ADGKTQTAEFKGTFEEATAKAYANADLSAKENGEYTADLEDGGNTINIKFAGGAVDANSLAEAKVLANRELDKYGVSDYYKNLINNAKTVEGVKALIDEILAALP
B4: ProtL^Caf369: ProtL-ABD fusion protein modified with Caf at position 369 (protein)
chain: MKEEVTIKVNLIFADGKTQTAEFKGTFEEATAKAYAYADLLAKE[Caf]GEYTADLEDGGNTINIKFAGGAVDANSLAEAKVLANRELDKYGVSDYYKNLINNAKTVEGVKALIDEILAALP
B5: ProtL^Caf360: ProtL-ABD fusion protein modified with Caf at position 360 (protein)
chain: MKEEVTIKVNLIFADGKTQTAEFKGTFEEATAKAY[Caf]YADLLAKENGEYTADLEDGGNTINIKFAGGAVDANSLAEAKVLANRELDKYGVSDYYKNLINNAKTVEGVKALIDEILAALP
B6: ProtL-ABD: unmodified protein L domain B1 fused to a human albumin-binding domain (SEQ ID NO: 61) (protein)
chain: MKEEVTIKVNLIFADGKTQTAEFKGTFEEATAKAYAYADLLAKENGEYTADLEDGGNTINIKFAGGAVDANSLAEAKVLANRELDKYGVSDYYKNLINNAKTVEGVKALIDEILAALP
modifications: ProtL-ABD fusion protein
B7: ProtL^Caf368: ProtL-ABD fusion protein modified with Caf at position 368 (protein)
chain: MKEEVTIKVNLIFADGKTQTAEFKGTFEEATAKAYAYADLLAK[Caf]NGEYTADLEDGGNTINIKFAGGAVDANSLAEAKVLANRELDKYGVSDYYKNLINNAKTVEGVKALIDEILAALP

Tested on: mouse anti-6×His antibody alkaline phosphatase (AP) conjugate
Experiment: ELISA for light-induced reversible binding of an immunoglobulin to ProtL^Caf-ABD fusion proteins
Settings: for change in enzyme activity of bound Ig-AP conjugate after irradiation with UV light: UV light at 365 nm, 5 min; for affinity for the IgG (ELISA signal): ground state / illuminated with visible light
Method: ELISA was performed at ambient temperature in a 96-well Maxisorb microtiter plate (Nunc, Langenselbold, Germany).
Then, the wells were blocked with […] Roti-Block (Carl Roth, Karlsruhe, Germany) diluted 1:10 in ddH2O for 1 h and washed three times with PBS containing 0.1% v/v Tween 20 (PBS/T). After that, the purified ProtL^Caf-ABD fusion protein from Example 11 was applied in a dilution series in PBS/T and incubated for 1 h to effect complex formation between the ABD moiety and the pre-adsorbed HSA. The wells were then washed three times with PBS/T and incubated with 50 μl of a 1:1000 dilution in PBS/T of the aforementioned mouse anti-6×His Ig-AP conjugate.
All subsequent washing steps were performed in the dark. […] After 5 min at 25° C., the absorbance at 405 nm was measured using a SpectraMax 250 microtiter plate reader (Molecular Devices, Sunnyvale, Calif., USA).

| Molecule | change in enzyme activity of bound Ig-AP conjugate after irradiation with UV light | further results |
| --- | --- | --- |
| B1 | much less signal decrease |  |
| B2 | much less signal decrease |  |
| B3 | clear decrease | dissociation constant for the complex with the anti-6×His antibody (after irradiation with UV light at 365 nm): too low to deduce a dissociation constant; Kd (ground state (no UV), curve fit of the ELISA data, read-out: dissociation constant for the complex with the anti-6×His antibody): ~140 nM; affinity for the IgG (ELISA signal): showed affinity for the IgG; affinity for the IgG (ELISA signal) (listed as Caf337): high affinity |
| B4 | much less signal decrease |  |
| B5 | much less signal decrease |  |
| B6 | did not reveal any change in binding activity |  |
| B7 | much less signal decrease |  |
